# B1: CBP TAZ2 1764-1855 (protein)
# chain: SPQESRRLSIQRCIQSLVHACQCRNANCSLPSCQKMKRVVQHTKGCKRKTNGGCPVCKQLIALCCYHAKHCQENKCPVPFCLNIKHKLRQQQ
# Experiments:
# [1] = molecular target: T1, p53 AD1 13-37 (Homo sapiens, UniProt P04637); test: NMR HSQC titration, global fit raw
# [2] = molecular target: T1, p53 AD1 13-37; test: NMR HSQC titration, global fit SVD
# [3] = molecular target: T1, p53 AD1 13-37; test: NMR HSQC titration, local fit SVD
# [4] = molecular target: T1, p53 AD1 13-37; test: NMR HSQC titration, local fit raw
# [5] = molecular target: T1, p53 AD1 13-37; test: NMR HSQC titration, local fit raw with concentration correction
# [6] = molecular target: T1, p53 AD1 13-37; test: NMR HSQC titration, local fit raw; remark: listed apart in the source
# [7] = molecular target: T1, p53 AD1 13-37; test: NMR HSQC titration, local fit SVD; remark: listed apart in the source
# T1 sequence (P04637 13-37): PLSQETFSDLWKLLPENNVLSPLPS
binder,measurement,setting,value
B1,Kd,[1],180 µM
same,Kd,[2],32 µM
same,Kd,[3],33 µM
same,Kd,[4],448 µM
same,Kd,[5],345 µM
same,Kd,[6],27 µM
same,Kd,[7],225 µM
